Experimental data published in publication PMC8053128, “Structures of Neisseria gonorrhoeae MtrR-operator complexes reveal molecular mechanisms of DNA recognition and antibiotic resistance-conferring clinical mutations” (Nucleic Acids Research, 2021).

Target: the molecule itself
Assay: crystal structure; MtrR dimer bound to a 21-mer operator oligoduplex (Semet-MtrR with rpoH, native MtrR with mtrCDE); hanging drop, 200 mM calcium acetate, 27% PEG 8000, 100 mM Tris pH 7.5

Row | Protein | binding result
1 | Selenomethionine-derivatized MtrR (natural protein, selenomethionine-derivatized, MtrR, TetR-family transcriptional repressor of Neisseria gonorrhoeae, product of the mtrR gene; Same construct as m1 with methionines as selenomethionine; also called Semet-MtrR; not shown: His6, N-terminal, cleaved) MRKTKTEALKTKEHLMLAALETFYRKGIARTSLNEIAQAAGVTRGALYWHFKNKEDLFDALFQRICDDIENCIAQDAADAEGGSWTVFRHTLLHFFERLQSNDIHYKFHNILFLKCEHTEQNAAVIAIARKHQAIWREKITAVLTEAVENQDLADDLDKETAVIFIKSTLDGLIWRWFSSGESFDLGKTAPRIIGIMMDNLENHPCLRRK | binds

Target: the molecule itself
Assay: SEC; elution of purified point mutants compared with WT MtrR (Supplementary Figure S4); S200 column named in the purification

Row | Protein | stoichiometry N
2 | MtrR(Y48F) (natural protein, Neisseria gonorrhoeae, MtrR of Neisseria gonorrhoeae, point mutant; Made by site-directed mutagenesis of the mtrR-pMCSG7 construct; source: expressed from the pMCSG7 vector, purified (Ni-NTA, TEV cleavage, Ni-NTA, S200 size exclusion); not shown: His6, N-terminal, cleaved) MRKTKTEALKTKEHLMLAALETFYRKGIARTSLNEIAQAAGVTRGALFWHFKNKEDLFDALFQRICDDIENCIAQDAADAEGGSWTVFRHTLLHFFERLQSNDIHYKFHNILFLKCEHTEQNAAVIAIARKHQAIWREKITAVLTEAVENQDLADDLDKETAVIFIKSTLDGLIWRWFSSGESFDLGKTAPRIIGIMMDNLENHPCLRRK | 2
3 | MtrR(G45A) (natural protein, Neisseria gonorrhoeae, MtrR of Neisseria gonorrhoeae, point mutant; Made by site-directed mutagenesis of the mtrR-pMCSG7 construct; source: expressed from the pMCSG7 vector, purified (Ni-NTA, TEV cleavage, Ni-NTA, S200 size exclusion); not shown: His6, N-terminal, cleaved) MRKTKTEALKTKEHLMLAALETFYRKGIARTSLNEIAQAAGVTRAALYWHFKNKEDLFDALFQRICDDIENCIAQDAADAEGGSWTVFRHTLLHFFERLQSNDIHYKFHNILFLKCEHTEQNAAVIAIARKHQAIWREKITAVLTEAVENQDLADDLDKETAVIFIKSTLDGLIWRWFSSGESFDLGKTAPRIIGIMMDNLENHPCLRRK | 2
4 | MtrR(H50A) (natural protein, Neisseria gonorrhoeae, MtrR of Neisseria gonorrhoeae, point mutant; Made by site-directed mutagenesis of the mtrR-pMCSG7 construct; source: expressed from the pMCSG7 vector, purified (Ni-NTA, TEV cleavage, Ni-NTA, S200 size exclusion); not shown: His6, N-terminal, cleaved) MRKTKTEALKTKEHLMLAALETFYRKGIARTSLNEIAQAAGVTRGALYWAFKNKEDLFDALFQRICDDIENCIAQDAADAEGGSWTVFRHTLLHFFERLQSNDIHYKFHNILFLKCEHTEQNAAVIAIARKHQAIWREKITAVLTEAVENQDLADDLDKETAVIFIKSTLDGLIWRWFSSGESFDLGKTAPRIIGIMMDNLENHPCLRRK | 2
5 | MtrR(W49F) (natural protein, Neisseria gonorrhoeae, MtrR of Neisseria gonorrhoeae, point mutant; Made by site-directed mutagenesis of the mtrR-pMCSG7 construct; source: expressed from the pMCSG7 vector, purified (Ni-NTA, TEV cleavage, Ni-NTA, S200 size exclusion); not shown: His6, N-terminal, cleaved) MRKTKTEALKTKEHLMLAALETFYRKGIARTSLNEIAQAAGVTRGALYFHFKNKEDLFDALFQRICDDIENCIAQDAADAEGGSWTVFRHTLLHFFERLQSNDIHYKFHNILFLKCEHTEQNAAVIAIARKHQAIWREKITAVLTEAVENQDLADDLDKETAVIFIKSTLDGLIWRWFSSGESFDLGKTAPRIIGIMMDNLENHPCLRRK | 2
6 | MtrR(T43A) (natural protein, Neisseria gonorrhoeae, MtrR of Neisseria gonorrhoeae, point mutant; Made by site-directed mutagenesis of the mtrR-pMCSG7 construct; source: expressed from the pMCSG7 vector, purified (Ni-NTA, TEV cleavage, Ni-NTA, S200 size exclusion); not shown: His6, N-terminal, cleaved) MRKTKTEALKTKEHLMLAALETFYRKGIARTSLNEIAQAAGVARGALYWHFKNKEDLFDALFQRICDDIENCIAQDAADAEGGSWTVFRHTLLHFFERLQSNDIHYKFHNILFLKCEHTEQNAAVIAIARKHQAIWREKITAVLTEAVENQDLADDLDKETAVIFIKSTLDGLIWRWFSSGESFDLGKTAPRIIGIMMDNLENHPCLRRK | 2
7 | MtrR(T43S) (natural protein, Neisseria gonorrhoeae, MtrR of Neisseria gonorrhoeae, point mutant; Made by site-directed mutagenesis of the mtrR-pMCSG7 construct; source: expressed from the pMCSG7 vector, purified (Ni-NTA, TEV cleavage, Ni-NTA, S200 size exclusion); not shown: His6, N-terminal, cleaved) MRKTKTEALKTKEHLMLAALETFYRKGIARTSLNEIAQAAGVSRGALYWHFKNKEDLFDALFQRICDDIENCIAQDAADAEGGSWTVFRHTLLHFFERLQSNDIHYKFHNILFLKCEHTEQNAAVIAIARKHQAIWREKITAVLTEAVENQDLADDLDKETAVIFIKSTLDGLIWRWFSSGESFDLGKTAPRIIGIMMDNLENHPCLRRK | 2
8 | MtrR(R44A) (natural protein, Neisseria gonorrhoeae, MtrR of Neisseria gonorrhoeae, point mutant; Made by site-directed mutagenesis of the mtrR-pMCSG7 construct; source: expressed from the pMCSG7 vector, purified (Ni-NTA, TEV cleavage, Ni-NTA, S200 size exclusion); not shown: His6, N-terminal, cleaved) MRKTKTEALKTKEHLMLAALETFYRKGIARTSLNEIAQAAGVTAGALYWHFKNKEDLFDALFQRICDDIENCIAQDAADAEGGSWTVFRHTLLHFFERLQSNDIHYKFHNILFLKCEHTEQNAAVIAIARKHQAIWREKITAVLTEAVENQDLADDLDKETAVIFIKSTLDGLIWRWFSSGESFDLGKTAPRIIGIMMDNLENHPCLRRK | 2
9 | MtrR(T11A) (natural protein, Neisseria gonorrhoeae, MtrR of Neisseria gonorrhoeae, point mutant; Made by site-directed mutagenesis of the mtrR-pMCSG7 construct; source: expressed from the pMCSG7 vector, purified (Ni-NTA, TEV cleavage, Ni-NTA, S200 size exclusion); not shown: His6, N-terminal, cleaved) MRKTKTEALKAKEHLMLAALETFYRKGIARTSLNEIAQAAGVTRGALYWHFKNKEDLFDALFQRICDDIENCIAQDAADAEGGSWTVFRHTLLHFFERLQSNDIHYKFHNILFLKCEHTEQNAAVIAIARKHQAIWREKITAVLTEAVENQDLADDLDKETAVIFIKSTLDGLIWRWFSSGESFDLGKTAPRIIGIMMDNLENHPCLRRK | 2
10 | MtrR wild type (natural protein, MtrR, TetR-family transcriptional repressor of Neisseria gonorrhoeae, product of the mtrR gene; also called WT MtrR; MtrR WT; source: expressed from the pMCSG7 vector, purified (Ni-NTA, TEV cleavage, Ni-NTA, S200 size exclusion); not shown: His6, N-terminal, cleaved) MRKTKTEALKTKEHLMLAALETFYRKGIARTSLNEIAQAAGVTRGALYWHFKNKEDLFDALFQRICDDIENCIAQDAADAEGGSWTVFRHTLLHFFERLQSNDIHYKFHNILFLKCEHTEQNAAVIAIARKHQAIWREKITAVLTEAVENQDLADDLDKETAVIFIKSTLDGLIWRWFSSGESFDLGKTAPRIIGIMMDNLENHPCLRRK | 2
11 | MtrR(W49A) (natural protein, Neisseria gonorrhoeae, MtrR of Neisseria gonorrhoeae, point mutant; Made by site-directed mutagenesis of the mtrR-pMCSG7 construct; source: expressed from the pMCSG7 vector, purified (Ni-NTA, TEV cleavage, Ni-NTA, S200 size exclusion); not shown: His6, N-terminal, cleaved) MRKTKTEALKTKEHLMLAALETFYRKGIARTSLNEIAQAAGVTRGALYAHFKNKEDLFDALFQRICDDIENCIAQDAADAEGGSWTVFRHTLLHFFERLQSNDIHYKFHNILFLKCEHTEQNAAVIAIARKHQAIWREKITAVLTEAVENQDLADDLDKETAVIFIKSTLDGLIWRWFSSGESFDLGKTAPRIIGIMMDNLENHPCLRRK | 2
